To fix the notation:
B1: K2AP fusion protein (amino acids 1-639 of the RPTPκ proprotein fused to human placental alkaline phosphatase) (other)
chain: ALGQFSAGGCTFDDGPGACDYHQDLYDDFEWVHVSAQEPHYLPPEMPQGSYMVVDSSNHDPGEKARLQLPTMKENDTHCIDFSYLLYSQKGLNPGTLNILVRVNKGPLANPIWNVTGFTGRDWLRAELAVSTFWPNEYQVIFEAEVSGGRSGYIAIDDIQVLSYPCDKSPHFLRLGDVEVNAGQNATFQCIATGRDAVHNKLWLQRRNGEDIPVAQTKNINHRRFAASFRLQEVTKTDQDLYRCVTQSERGSGVSNFAQLIVREPPRPIAPPQLLGVGPTYLLIQLNANSIIGDGPIILKEVEYRMTSGSWTETHAVNAPTYKLWHLDPDTEYEIRVLLTRPGEGGTGLPGPPLITRTKCAEPMRTPKTLKIAEIQARRIAVDWESLGYNITRCHTFNVTICYHYFRGHNESRADCLDMDPKAPQHVVNHLPPYTNVSLKMILTNPEGRKESEETIIQTDEDVPGPVPVKSLQGTSFENKIFLNWKEPLEPNGIITQYEVSYSSIRSFDPAVPVAGPPQTVSNLWNSTHHVFMHLHPGTTYQFFIRASTVKGFGPATAINVTTNISAPSLPDYEGVDASLNETATTITVLLRPAQAKGAPISAYQIVVEQLHPH
notes: Secreted from baculovirus-infected High-Five cells and about 90% pure; K2AP-a was eluted at alkaline pH and K2AP-b with 50% ethylene glycol; they are the same protein; also called K2AP-a; K2AP-b; not shown: human placental alkaline phosphatase, fused in-frame as a tag
B2: murine receptor-type protein tyrosine phosphatase-κ (RPTPκ) precursor protein (receptor)
chain: ALGQFSAGGCTFDDGPGACDYHQDLYDDFEWVHVSAQEPHYLPPEMPQGSYMVVDSSNHDPGEKARLQLPTMKENDTHCIDFSYLLYSQKGLNPGTLNILVRVNKGPLANPIWNVTGFTGRDWLRAELAVSTFWPNEYQVIFEAEVSGGRSGYIAIDDIQVLSYPCDKSPHFLRLGDVEVNAGQNATFQCIATGRDAVHNKLWLQRRNGEDIPVAQTKNINHRRFAASFRLQEVTKTDQDLYRCVTQSERGSGVSNFAQLIVREPPRPIAPPQLLGVGPTYLLIQLNANSIIGDGPIILKEVEYRMTSGSWTETHAVNAPTYKLWHLDPDTEYEIRVLLTRPGEGGTGLPGPPLITRTKCAEPMRTPKTLKIAEIQARRIAVDWESLGYNITRCHTFNVTICYHYFRGHNESRADCLDMDPKAPQHVVNHLPPYTNVSLKMILTNPEGRKESEETIIQTDEDVPGPVPVKSLQGTSFENKIFLNWKEPLEPNGIITQYEVSYSSIRSFDPAVPVAGPPQTVSNLWNSTHHVFMHLHPGTTYQFFIRASTVKGFGPATAINVTTNISAPSLPDYEGVDASLNETATTITVLLRPAQAKGAPISAYQIVVEQLHPHRTKREAGAMECYQVPVTYQNALSGGAPYYFAAELPPGNLPEPAPFTVGDNRTYKGFWNPPLAPRKGYNIYFQAMSSVEKETKTQCVRIATKAAATEEPEVIPDPAKQTDRVVKIAGISAGILVFILLLLVVIVIVKKSKLAKKRKDAMGNTRQEMTHMVNAMDRSYADQSTLHAEDPLSLTFMDQHNFSPRLPNDPLVPTAVLDENHSATAESSRLLDVPRYLCEGTESPYQTGQLHPAIRVADLLQHINLMKTSDSYGFKEEYESFFEGQSASWDVAKKDQNRAKNRYGNIIAYDHSRVILQPVEDDPSSDYINANYIDIWLYRDGYQRPSHYIATQGPVHETVYDFWRMVWQEQSACIVMVTNLVEVGRVKCYKYWPDDTEVYGDFKVTCVEMEPLAEYVVRTFTLERRGYNEIREVKQFHFTGWPDHGVPYHATGLLSFIRRVKLSNPPSAGPIVVHCSAGAGRTGCYIVIDIMLDMAEREGVVDIYNCVKALRSRRINMVQTEEQYIFIHDAILEACLCGETAIPVCEFKAAYFDMIRIDSQTNSSHLKDEFQTLNSVTPRLQAEDCSIACLPRNHDKNRFMDMLPPDRCLPFLITIDGESSNYINAALMDSYRQPAAFIVTQYPLPNTVKDFWRLVYDYGCTSIVMLNEVDLSQGCPQYWPEEGMLRYGPIQVECMSCSMDCDVINRIFRICNLTRPQEGYLMVQQFQYLGWASHREVPGSKRSFLKLILQVEKWQEECEEGEGRTIIHCLNGGGRSGMFCAIGIVVEMVKRQNVVDVFHAVKTLRNSKPNMVEAPEQYRFCYDVALEYLESS
notes: Full-length cDNA expressed in HeLa, COS, Drosophila S2 and rat L6 cells, tested on cells or in their lysates; It is partly cleaved at RTKR (640-643) into 110 kDa and 100 kDa products; also called RPTPase-κ; wt RPTPκ
B3: secreted alkaline phosphatase (AP) control protein (enzyme, human, UniProt P05187 23-511, looked up)
chain: IIPVEEENPDFWNREAAEALGAAKKLQPAQTAAKNLIIFLGDGMGVSTVTAARILKGQKKDKLGPEIPLAMDRFPYVALSKTYNVDKHVPDSGATATAYLCGVKGNFQTIGLSAAARFNQCNTTRGNEVISVMNRAKKAGKSVGVVTTTRVQHASPAGTYAHTVNRNWYSDADVPASARQEGCQDIATQLISNMDIDVILGGGRKYMFRMGTPDPEYPDDYSQGGTRLDGKNLVQEWLAKRQGARYVWNRTELMQASLDPSVTHLMGLFEPGDMKYEIHRDSTLDPSLMEMTEAALRLLSRNPRGFFLFVEGGRIDHGHHESRAYRALTETIMFDDAIERAGQLTSEEDTLSLVTADHSHVFSFGGYPLRGSSIFGLAPGKARDRKAYTVLLYGNGPGYVLKDGARPDVTESESGSPEYRQQSAVPLDEETHAGEDVAVFARGPQAHLVHGVQEQTFIAHVMAFAACLEPYTACDLAPPAGTTDAAHPG
notes: About 50% pure; also called alkaline phosphatase control protein

For data set [1], the target named is B2. Description: cell-to-substrate adhesion, L6 cells on a K2AP-coated surface.
Data set [2] concerns the target [32P]-tyrosine phosphorylated myelin basic protein. Description: cell-based or functional assay.
Data set [3] deals with the molecule itself. The data set can be described thus: co-aggregation of diI-labelled and unlabelled S2 cells, fluorescence microscopy. The source says: FIGS. 23A–23C. […] Two different cell populations, one of which had been labeled with the fluorescent dye diI (J. Schiessinger et al. Science 195, 307, (1977)), were allowed to co-aggregate and the resulting aggregates inspected by visible and fluorescence microscopy. diI-fluorescence is white in the photographs.

The target in data set [4] is B2. Description: cell-to-substrate adhesion, induced S2-R-PTP-κ cells on the coated dish.

Chain of [32P]-tyrosine phosphorylated myelin basic protein (P02687 whole entry): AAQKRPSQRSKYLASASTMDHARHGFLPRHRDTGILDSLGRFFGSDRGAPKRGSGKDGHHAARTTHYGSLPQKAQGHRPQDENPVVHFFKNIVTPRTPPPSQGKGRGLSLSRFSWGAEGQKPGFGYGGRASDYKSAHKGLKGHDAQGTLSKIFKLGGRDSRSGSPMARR

Consider B1, for which the “fold increase in adhesive capacity (RPTPκ-overexpressing L6 cells against parental L6 cells)” value in data set [1] turned out to be 2.7 fold. For B2, in data set [2], the “PTPase activity in immune complexes (release of [32P]-phosphate)” value is roughly 3 fold. For the same molecule, the binding result in data set [3] is recorded as “binds”. In the case of B3, the binding result in data set [4] is on record as “no binding (tested: 20 g/ml (so in the source) spotted)”.

These data come from patent US7056508 (NEW YORK UNIVERSITY, dated 2006).
